# Laboratory results taken from PMC10776854.
# B1: MARCH6-FLAG WT [human] / SQLE [human (endogenous in K562)] (parent)
# chain 1: MDTAEEDICRVCRSEGTPEKPLYHPCVCTGSIKFIHQECLVQWLKHSRKEYCELCKHRFAFTPIYSPDMPSRLPIQDIFAGLVTSIGTAIRYWFHYTLVAFAWLGVVPLTACRIYKCLFTGSVSSLLTLPLDMLSTENLLADCLQGCFVVTCTLCAFISLVWLREQIVHGGAPIWLEHAAPPFNAAGHHQNEAPAGGNGAENVAADQPANPPAENAVVGENPDAQDDQAEEEEEDNEEEDDAGVEDAADANNGAQDDMNWNALEWDRAAEELTWERMLGLDGSLVFLEHVFWVVSLNTLFILVFAFCPYHIGHFSLVGLGFEEHVQASHFEGLITTIVGYILLAITLIICHGLATLVKFHRSRRLLGVCYIVVKVSLLVVVEIGVFPLICGWWLDICSLEMFDATLKDRELSFQSAPGTTMFLHWLVGMVYVFYFASFILLLREVLRPGVLWFLRNLNDPDFNPVQEMIHLPIYRHLRRFILSVIVFGSIVLLMLWLPIRIIKSVLPNFLPYNVMLYSDAPVSELSLELLLLQVVLPALLEQGHTRQWLKGLVRAWTVTAGYLLDLHSYLLGDQEENENSANQQVNNNQHARNNNAIPVVGEGLHAAHQAILQQGGPVGFQPYRRPLNFPLRIFLLIVFMCITLLIASLICLTLPVFAGRWLMSFWTGTAKIHELYTAACGLYVCWLTIRAVTVMVAWMPQGRRVIFQKVKEWSLMIMKTLIVAVLLAGVVPLLLGLLFELVIVAPLRVPLDQTPLFYPWQDWALGVLHAKIIAAITLMGPQWWLKTVIEQVYANGIRNIDLHYIVRKLAAPVISVLLLSLCVPYVIASGVVPLLGVTAEMQNLVHRRIYPFLLMVVVLMAILSFQVRQFKRLYEHIKNDKYLVGQRLVNYERKSGKQGSSPPPPQSSQE
# chain 2: MWTFLGIATFTYFYKKFGDFITLANREVLLCVLVFLSLGLVLSYRCRHRNGGLLGRQQSGSQFALFSDILSGLPFIGFFWAKSPPESENKEQLEARRRRKGTNISETSLIGTAACTSTSSQNDPEVIIVGAGVLGSALAAVLSRDGRKVTVIERDLKEPDRIVGEFLQPGGYHVLKDLGLGDTVEGLDAQVVNGYMIHDQESKSEVQIPYPLSENNQVQSGRAFHHGRFIMSLRKAAMAEPNAKFIEGVVLQLLEEDDVVMGVQYKDKETGDIKELHAPLTVVADGLFSKFRKSLVSNKVSVSSHFVGFLMKNAPQFKANHAELILANPSPVLIYQISSSETRVLVDIRGEMPRNLREYMVEKIYPQIPDHLKEPFLEATDNSHLRSMPASFLPPSSVKKRGVLLLGDAYNMRHPLTGGGMTVAFKDIKLWRKLLKGIPDLYDDAAIFEAKKSFYWARKTSHSFVVNILAQALYELFSATDDSLHQLRKACFLYFKLGGECVAGPVGLLSVLSPNPLVLIGHFFAVAIYAVYFCFKSEPWITKPRALLSSGAVLYKACSVIFPLIYSEMKYMVH
# Variants of: B1
# Test: FLAG-immunoprecipitation, Western blot densitometry
# Conditions: with SQLE [human (endogenous in K562)], K562 cells expressing MARCH6-FLAG, eight independent biological replicates, parent: 0.55, read off a plot
row,Variant,response (SQLE/MARCH6 ratio)
1,chain 1 Y92V,0.89
2,chain 1 Y96V,0.24
3,chain 1 Y92V Y96V,0.27
4,chain 1 L140A L747A,0.5
